Experiment: soluble on expression in E. coli; label from the status in PepcDB or PDB records

Sequence | soluble on expression in E. coli
MTQCFKCKQAIGTVVSRDGPTKLYCPDCFLAYCAGAVRENAFQQCRVPSDTPLAVAVSGGPNSMMLLRELGQLRYKTRDQIRRQHLTPQRQAPAQGGKSRSTPTSSPPARSTPLASSLILLPFHLCEDELVLPLPPPLSSSTSSPSSLHAISGRHEAVNRVRSAMEEQFATLRKYVQQQPPRWVYHGEVPCGHKRTKKQQNNPTAAERTGAAHAGGANIATPELSHRGGGSTSAPSPQPRPQRQAGESGETAAATARLFDDSEIRLFRYSDLLSGTYLSELRYALHVSRLSLSDREALYARVRQQTLCRAAQRVCQEHRQRNAAAAAATAVVVGGVAHEEGIREDAAQCSEEQAPFDEHVSLEGTNSKTRSHLLLGSNAVRCATAALEALVTGAGGEGVVHGAGFRGFTHEVVCLRPLRAMLPKETIMYTRLCGIAGSYTPALCTGTATRSVHRTLEQFVLTMMTSYRTMIFNVLNTVQRLEVHPAAMQELLRGIDDASACHTHVHGEGLAEAGSTQSAGKTTRKALPARTAQLNRTDMCLAAPLHVRRDLGGVNVNEADIDSVIAMCCVCGCPASITSCYRGQNANTAVRQLEMLALNTTSAMTPRTSGASPSTVADAASASEASPTTTGCFLCYACQGLADAWPPSVFGRDSTTENDEQPGNDSTTAAGAAARHGAIASTAALFRLCALFY | not soluble
MTQERPSKLSFSIEETVWLNKGQEVKEILAMSLEPDIRIEEKQDHVYIKGGLRLLGEYVPTEEEATLDPTSAIQEQVSFRSVEEVTIDDEGKGSIQHFFPIDVTIPLSRIQKLDDIYVQVDSFDYDLPERSCIQLTADVSISGMTSEPPVSKQKAQSERPAAIDPLPKPPQLEPIPSTFSFEAKKPFVNEEAGAWNEGVQSRQTFKFQPADNENKLEEDVVVSNEEQAHEGEPIEESKADQAKVEESTASVQKQQEENHQQEVTSVANQDETAEGQVNEGNAIEPAMMRGEVDVEHYDSESVEEEENPTKIQLGVQREEVAIDEESQEDLGEDTDEPKGHREENALYLTKMMTNGEEEFSKLKMCIIQENESLDMIAERYDISTSHLIRFNRLTEERVEEGQILYIPVPSHQSKEGLEHHHHHH | soluble
MTQHQTLPQTTEGAYHYQVIRRAIELIDQTDQPISLDEIAANMGMSPAHFQRVFSRWVGVSPKRYQQYLTLGHAKTLLSERFSTLAASHAVGLSGSGRLHDLFLRWEAMSPGEFARKGAGLTIYWGWFESPFGPAIVMGTEKGICGMGFAAEMGAETAFEDLAARWPQASYVEDPMMLRPWVLQAFGAKDGALDTTPLFLIGAPFQIKVWEALLSIPTGHVTTYSEIAQAVGAPRAVRAVGTAVGRNPISWIIPCHRALRKSGGLGGYHWGIPMKRAMLAYEAVELETLEHHHHHH | not soluble
MTQRPWSKLQREIYDLLTPTINLQIHCTRYPMRSQNGGSTDLPRYWITLDKNVIWDYPKDFIAGNAGVRNFHGETCWYPYLTDICSISDLLREYIDTPKAELLTKQFTSDKWGLVNILRAADRRIGMRRLDQLRRKTHNIAALKIIARRSE | not soluble
MTQTTQSPALIASQSSWRCVQAHDREGWLALMADDVVIEDPIGKSVTNPDGSGIKGKEAVGAFFDTHIAANRLTVTCEETFPSSSPDEIAHILVLHSEFDGGFTSEVRGVFTYRVNKAGLITNMRGYWNLDMMTFGNQE | soluble
MTRDLAPALQALSPLLGSWAGRGAGKYPTIRPFEYLEEVVFAHVGKPFLTYTQQTRAVADGKPLHSETGYLRVCRPGCVELVLAHPSGITEIEVGTYSVTGDVIELELSTRADGSIGLAPTAKEVTALDRSYRIDGDELSYSLQMRAVGQPLQDHLAAVLHRQRRSHHHHHH | soluble
MTREHPPEPLDFFIWTVEDVGSWLEEINLGGYRQIFKENGVNGEYLESMSVFTTEQILHFIRRHHMKWGDFITLCKELRRIKVACLKGEQRVRRPWWAPSCLSVVFVKAAKRNRQSRVVSLKLES | not soluble
MTRLLYYEDAYLKEAKAKVLEVKDNALLLDQTIFYPTGGGQPHDRGWINGVEVLDVYKDEEGNVWHVVKELEKFKPGDEVELKLDWEYRYKLMRIHSALHLLENVLDQILGKGNWEVVGSGMTHEKGRLDVGYPENLNAYKEKIIELFNRYVDEGGEIKIWWEGEKRYTQIRDFDPIPCGGTHVKDIREIGHIKKLKRSSIGRGKQRLEIWLEDLEHHHHHH | not soluble
MTRSGNTRNGKYMGEDKRRYHTITNILQYNLIPDFFTIFAKYCITFKNMTMEKTFAQISELFDQFSKDASLQVEKGNKAAGTRARKASLELEKLLKRFRKESLEASK | not soluble
MTRSRRGALARSSEGGPFPTADPVADRALCGWRVRSVIDLPELPLWTRDDRLPDVTIAFGRVTPVESASPGMNWHVVGEGRFRFTVASVGSYRISRGRVITIDPQAGVVASAVRQYLLGTAFGVLCHQRGLLPLHASCVAINGRAVAIAGASGAGKSSLAAALVRLGYPLLGDDVCVIDASEINAPHVLPAIPRLKLWRDVLDTFGLIVDPAARILEGIDKYQAQALADRPPPPPPQVPLPLGVVYYLDQAESPDDEGFHAIRGAERAAALAGAVYRRKMGLAMGLLPQIFTATMTVGALVPGHRLLRHGDLSGLDALARSVAARQEGRGLEHHHHHH | not soluble
MTRTPLTLEQLNALSDDAFTEHFAGVLEHSPHYARRAAAGRPFADVEEVAAAFARAVAADEPGAQVQLIRAHPDLAGKAALAGELTAESASEQTSAGLDRLSPEEYAEFQRLNAAYHERFGLPYVVCVRENTKDTIFEGARRRLTHTQEEEQAAALHEIGRIARLRILDLVQEGRQEKRMDGRLIRIPLEHHHHHH | soluble
MTSEKLSAACHCGSVVFTVQLSDGFHTARRCNCSFCRMRGAVAVSAPLSGIKVLKGQDKLTEYRFNTGKAVHFFCSVCGIYTFHQRRSNPDQYGVNVACIENVSPFDFACVEVNDGVTHPSDGGSSGVVGYLRYEPKKSPPVETGGKNILEHHHHHH | soluble
MTSGTSVINDKVLQYETFISEVLRRDLQKVLEQRDAVYEKIAQYLQLKNTIQSIQESGSKELKTDVDLGCNFYVQAHVPDASRIYVAVGYGFFVEFTHAEALKFIEKKTNQLTEYTEVLTKDAAKIKANIRMVLEGLRELQGLKDLPEDRRREVF | not soluble
MTSLPPRNRSASLFEGSPFAPSSTTSPPTSSLAKMLKSEPIPCLRCGNVGSPTGSVPMSLHKVSSINRSAGTNPASRGGESSLELEAIAAVHELSFAVQSISVSEMLPRTPDLIFVNVTTLEAQPYCLELTLKGWRITSLRSDCMVGDFTRLELFTKYYDSLYLLMDDISPGYRERFSEKLVQRLKLIEAGEEDQVAPCASLQSPSLSTDSSSKESQYSSTESLPIVTPVSTPAIDPDFKPKFK | not soluble
MTSLQLSIVHRLPQNYRWSAGFAGSKVEPIPQNGPCGDNSLVALKLLSPDGDNAWSVMYKLSQALSDIEVPCSVLECEGEPCLFVNRQDEFAATCRLKNFGVAIAEPFSNYNPFLEHHHHHH | not soluble
MTSLSQFEPLFLEFMQQEMQVDAAHDIEHVKRVVKTAKQLCDEENADIAIVLPAAYLHDCFTYPKDHPNRKQSSAIAAKKAIAYLESIQYPQHYHDAIAHAIEAHSFSANIRPNTLEAQIVQDADRLDALGAIGVTRCIQVSTHFNAQLYNDNDMFAKERELNDKQFTVDHFQTKLFKIADTMNTESAKLEANKRKAFMQTYLKQLHDEVTALEHHHHHH | soluble
MTSNDADIKATVCVVTYNQVEYIEQCLQSLIDQITNFEFEIIVGDDFSTDGTRRIVEDFQRKYPHVIKPIFHSRNVGAAVNFNAVHGSARGKFVAHVDGDDYMLPNKLRSQVDFMERNPNCNISWHRMYVSYGSNIKEDLLDLNNFRQLCFTRADILKFITIGMNSSKMYRAETMNFQRPDFPMLDYFANVEQIGDGQACFISSEPLGVYRAGIGIAKNDFRVKEALNSSFLYFLSKYPKLSNEINQSVLLLLLMAFKNRRYTELSLFLKVYLKSFSFFTPWKLYKDYEFIKMLRLPKLEHHHHHH | not soluble
MTSPSSASPDGHGARLDAQSIRFERLLPGPIERVWAWLADADKRARWLAGGELPRQPGQTFELHFNHAALTAETAPARYAQYDRPIVARHTLLRCEPPRVLALTWGGGAGEAPSEVLFELSEAGEQVRLVLTHTRLADRAAMLDVAGGWHAHLAVLAGKLAGQAPPPFWTTLAQAEQDYEQRLLEHHHHHH | soluble

From the DeepSol protein solubility set
